B1: Keratin, type II cytoskeletal 6A (Homo sapiens), P02538 (parent)
chain: MASTSTTIRSHSSSRRGFSANSARLPGVSRSGFSSVSVSRSRGSGGLGGACGGAGFGSRSLYGLGGSKRISIGGGSCAISGGYGSRAGGSYGFGGAGSGFGFGGGAGIGFGLGGGAGLAGGFGGPGFPVCPPGGIQEVTVNQSLLTPLNLQIDPTIQRVRAEEREQIKTLNNKFASFIDKVRFLEQQNKVLETKWTLLQEQGTKTVRQNLEPLFEQYINNLRRQLDSIVGERGRLDSELRGMQDLVEDFKNKYEDEINKRTAAENEFVTLKKDVDAAYMNKVELQAKADTLTDEINFLRALYDAELSQMQTHISDTSVVLSMDNNRNLDLDSIIAEVKAQYEEIAQRSRAEAESWYQTKYEELQVTAGRHGDDLRNTKQEIAEINRMIQRLRSEIDHVKKQCANLQAAIADAEQRGEMALKDAKNKLEGLEDALQKAKQDLARLLKEYQELMNVKLALDVEIATYRKLLEGEECRLNGEGVGQVNISVVQSTVSSGYGGASGVGSGLGLGGGSSYSYGSGLGVGGGFSSSSGRAIGGGLSSVGGGSSTIKYTTTSSSSRKSYKH
partner: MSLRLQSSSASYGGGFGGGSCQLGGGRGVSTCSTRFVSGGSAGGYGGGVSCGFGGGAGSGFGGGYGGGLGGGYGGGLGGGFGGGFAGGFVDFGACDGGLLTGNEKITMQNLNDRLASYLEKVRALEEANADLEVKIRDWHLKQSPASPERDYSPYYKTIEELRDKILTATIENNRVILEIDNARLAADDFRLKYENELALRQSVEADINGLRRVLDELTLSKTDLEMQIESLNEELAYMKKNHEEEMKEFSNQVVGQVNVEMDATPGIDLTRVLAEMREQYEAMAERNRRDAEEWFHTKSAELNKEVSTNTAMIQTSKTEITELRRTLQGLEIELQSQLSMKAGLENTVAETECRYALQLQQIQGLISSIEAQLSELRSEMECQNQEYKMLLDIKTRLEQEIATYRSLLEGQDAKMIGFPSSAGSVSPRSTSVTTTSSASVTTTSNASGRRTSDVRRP
B2: Fructose-bisphosphate aldolase A (Homo sapiens), P04075-2 (parent)
chain: MARRKPEGSSFNMTHLSMAMAFSFPPVASGQLHPQLGNTQHQTELGKELATTSTMPYQYPALTPEQKKELSDIAHRIVAPGKGILAADESTGSIAKRLQSIGTENTEENRRFYRQLLLTADDRVNPCIGGVILFHETLYQKADDGRPFPQVIKSKGGVVGIKVDKGVVPLAGTNGETTTQGLDGLSERCAQYKKDGADFAKWRCVLKIGEHTPSALAIMENANVLARYASICQQNGIVPIVEPEILPDGDHDLKRCQYVTEKVLAAVYKALSDHHIYLEGTLLKPNMVTPGHACTQKFSHEEIAMATVTALRRTVPPAVTGITFLSGGQSEEEASINLNAINKCPLLKPWALTFSYGRALQASALKAWGGKKENLKAAQEEYVKRALANSLACQGKYTPSGQAGAAASESLFVSNHAY
partner: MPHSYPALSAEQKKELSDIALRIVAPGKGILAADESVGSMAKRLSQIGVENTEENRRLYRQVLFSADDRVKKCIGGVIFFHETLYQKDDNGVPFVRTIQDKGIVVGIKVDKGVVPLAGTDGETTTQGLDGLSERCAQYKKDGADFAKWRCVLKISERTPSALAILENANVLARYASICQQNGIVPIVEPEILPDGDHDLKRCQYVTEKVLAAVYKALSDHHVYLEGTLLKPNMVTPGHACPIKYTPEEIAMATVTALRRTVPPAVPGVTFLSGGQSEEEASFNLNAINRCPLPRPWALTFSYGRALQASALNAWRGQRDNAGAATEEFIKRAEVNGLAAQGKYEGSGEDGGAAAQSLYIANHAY
B3: Polyunsaturated fatty acid 5-lipoxygenase (Homo sapiens), P09917 (parent)
chain: MPSYTVTVATGSQWFAGTDDYIYLSLVGSAGCSEKHLLDKPFYNDFERGAVDSYDVTVDEELGEIQLVRIEKRKYWLNDDWYLKYITLKTPHGDYIEFPCYRWITGDVEVVLRDGRAKLARDDQIHILKQHRRKELETRQKQYRWMEWNPGFPLSIDAKCHKDLPRDIQFDSEKGVDFVLNYSKAMENLFINRFMHMFQSSWNDFADFEKIFVKISNTISERVMNHWQEDLMFGYQFLNGCNPVLIRRCTELPEKLPVTTEMVECSLERQLSLEQEVQQGNIFIVDFELLDGIDANKTDPCTLQFLAAPICLLYKNLANKIVPIAIQLNQIPGDENPIFLPSDAKYDWLLAKIWVRSSDFHVHQTITHLLRTHLVSEVFGIAMYRQLPAVHPIFKLLVAHVRFTIAINTKAREQLICECGLFDKANATGGGGHVQMVQRAMKDLTYASLCFPEAIKARGMESKEDIPYYFYRDDGLLVWEAIRTFTAEVVDIYYEGDQVVEEDPELQDFVNDVYVYGMRGRKSSGFPKSVKSREQLSEYLTVVIFTASAQHAAVNFGQYDWCSWIPNAPPTMRAPPPTAKGVVTIEQIVDTLPDRGRSCWHLGAVWALSQFQENELFLGMYPEEHFIEKPVKEAMARFRKNLEAIVSVIAERNKKKQLPYYYLSPDRIPNSVAI

Variants of: B1
Details: with KRT13, P13646
In the case of N171K, the “effect of a mutation on the interaction” value is reported as “with no effect”.
In the case of I462S, the “effect of a mutation on the interaction” value is reported as “with no effect”.
A463P was tested, and the “effect of a mutation on the interaction” value was “with no effect”.
With V523F the “effect of a mutation on the interaction” value was “with no effect”.
In the case of N21S, the “effect of a mutation on the interaction” value is reported as “with no effect”.

Variants of: B2
Details: with aldoc_human ALDOC
E261K was tested, and the “effect of a mutation on the interaction” value was “disrupting interaction strength”.
In the case of D183G, the “effect of a mutation on the interaction” value is reported as “with no effect”.
With C393Y the “effect of a mutation on the interaction” value was “with no effect”.

Variants of: B3
Details: with md1l1_human MAD1L1, Q9Y6D9
Sequence of md1l1_human MAD1L1, Q9Y6D9 (Q9Y6D9 whole entry): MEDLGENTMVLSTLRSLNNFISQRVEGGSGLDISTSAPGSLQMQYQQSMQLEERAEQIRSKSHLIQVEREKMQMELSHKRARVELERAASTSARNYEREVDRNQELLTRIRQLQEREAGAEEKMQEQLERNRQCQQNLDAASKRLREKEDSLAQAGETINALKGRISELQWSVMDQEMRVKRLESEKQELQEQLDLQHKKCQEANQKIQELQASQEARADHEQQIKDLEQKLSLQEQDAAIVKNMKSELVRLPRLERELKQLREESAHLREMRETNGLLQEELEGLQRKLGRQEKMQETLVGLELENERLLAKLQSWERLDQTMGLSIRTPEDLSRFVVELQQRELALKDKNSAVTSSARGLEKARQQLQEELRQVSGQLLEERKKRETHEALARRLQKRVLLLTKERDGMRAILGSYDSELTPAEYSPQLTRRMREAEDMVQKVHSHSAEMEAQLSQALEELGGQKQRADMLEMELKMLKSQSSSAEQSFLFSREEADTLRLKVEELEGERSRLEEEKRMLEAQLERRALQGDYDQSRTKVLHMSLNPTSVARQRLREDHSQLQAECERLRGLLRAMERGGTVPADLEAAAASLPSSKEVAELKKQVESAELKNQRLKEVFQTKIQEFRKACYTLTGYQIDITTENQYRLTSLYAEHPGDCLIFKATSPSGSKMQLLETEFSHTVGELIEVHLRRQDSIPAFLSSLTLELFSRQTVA
For E254K, the “effect of a mutation on the interaction” value was “with no effect”.

Variants of: B3
Details: with hipl2_human HHIPL2, Q6UWX4
Sequence of hipl2_human HHIPL2, Q6UWX4 (Q6UWX4 whole entry): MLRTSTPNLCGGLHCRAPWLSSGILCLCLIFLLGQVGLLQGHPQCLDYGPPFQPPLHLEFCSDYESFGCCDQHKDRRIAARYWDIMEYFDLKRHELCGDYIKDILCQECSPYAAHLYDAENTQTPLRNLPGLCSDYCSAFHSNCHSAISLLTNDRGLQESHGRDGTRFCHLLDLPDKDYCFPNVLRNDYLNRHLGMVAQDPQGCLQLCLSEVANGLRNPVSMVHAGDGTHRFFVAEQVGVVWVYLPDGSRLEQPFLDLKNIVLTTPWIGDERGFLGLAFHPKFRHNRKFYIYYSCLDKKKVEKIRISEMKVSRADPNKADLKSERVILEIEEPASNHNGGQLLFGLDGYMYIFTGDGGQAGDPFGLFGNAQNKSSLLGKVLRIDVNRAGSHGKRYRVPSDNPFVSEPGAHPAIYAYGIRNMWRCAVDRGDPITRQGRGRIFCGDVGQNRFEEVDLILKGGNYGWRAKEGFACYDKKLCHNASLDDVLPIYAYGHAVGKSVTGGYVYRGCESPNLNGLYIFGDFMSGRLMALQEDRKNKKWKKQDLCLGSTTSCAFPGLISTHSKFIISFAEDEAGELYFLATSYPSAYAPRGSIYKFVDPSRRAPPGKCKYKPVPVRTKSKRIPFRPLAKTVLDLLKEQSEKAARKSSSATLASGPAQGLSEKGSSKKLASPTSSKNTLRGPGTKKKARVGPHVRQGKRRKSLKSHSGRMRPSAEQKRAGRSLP
With E254K the “effect of a mutation on the interaction” value was “with no effect”.

Variants of: B3
Details: with syce1_human SYCE1, Q8N0S2
Sequence of syce1_human SYCE1, Q8N0S2 (Q8N0S2 whole entry): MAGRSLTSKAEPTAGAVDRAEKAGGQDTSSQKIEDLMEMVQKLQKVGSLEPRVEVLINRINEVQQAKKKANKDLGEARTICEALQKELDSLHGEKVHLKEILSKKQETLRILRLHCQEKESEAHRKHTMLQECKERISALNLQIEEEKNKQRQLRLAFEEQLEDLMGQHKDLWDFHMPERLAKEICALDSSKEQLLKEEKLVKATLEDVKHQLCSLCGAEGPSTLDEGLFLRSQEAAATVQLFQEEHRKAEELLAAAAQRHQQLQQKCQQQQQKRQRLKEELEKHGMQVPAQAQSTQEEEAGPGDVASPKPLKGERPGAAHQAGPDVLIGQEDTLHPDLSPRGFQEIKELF
With E254K the “effect of a mutation on the interaction” value was “with no effect”.
